# From patent publication EP3444273A1 (Medicinal Bioconvergence Research Center, dated 2019)
# Ends that are not written are not given here.
# B1: H5 Fab (Fab, V domains shown)
# VH: QEQLVESGGGLVTPGGTLTLTCTASGFTISSYHMTWVRQAPGKGLEWIGVISNSGGTSYANWAKGRFTISKTSTTVDLKITSPTTEDTATYFCVRGVPGINSNLWGQGTLVTISS
# VL: AQVLTQTPSSVSAAVGGTVTINCQSSQSVYSGNWLAWYQQKPGQPPKLLIYSTSTLASGVPSRFKGSGSGTQFTLTVSDLECDDAATYYCAGDYDGYKNAFGGGTKVVVKR
# notes: Expressed from pComb3XTT in E. coli and used as periplasmic extract; Detected with anti-HA tag or anti-human Fab secondary antibody, so a tag may be present; also called antibody (Fab) of clone H5; rabbit/human chimeric Fab
# B2: H5 IgG antibody (antibody, V domains shown)
# VH: B1 VH
# VL: B1 VL
# notes: also called H5 antibody (IgG); H5 antibody
# Experiments:
# wild-type AIMP2 protein = target: T1, wild-type AIMP2 protein (human, UniProt Q13155 1-320); assay: Western blot of H460 cell lysate
# T1 construct: Endogenous protein of H460 cell lysate; also called wild-type (WT) AIMP2
# T1 sequence (looked up): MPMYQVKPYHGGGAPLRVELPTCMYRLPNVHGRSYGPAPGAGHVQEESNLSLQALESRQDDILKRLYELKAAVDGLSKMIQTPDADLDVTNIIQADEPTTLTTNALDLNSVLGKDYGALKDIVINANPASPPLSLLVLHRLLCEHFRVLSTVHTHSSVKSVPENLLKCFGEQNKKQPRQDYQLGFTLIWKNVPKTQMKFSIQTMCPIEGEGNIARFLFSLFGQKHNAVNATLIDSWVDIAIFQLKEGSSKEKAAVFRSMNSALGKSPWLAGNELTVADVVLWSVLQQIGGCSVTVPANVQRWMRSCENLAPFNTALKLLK
# [1] = target: T2, BSA-conjugated AIMP2-DX2 antigen peptide (human, not fully specified (residue 12); also: C-terminal Cys conjugated to BSA carrier); assay: ELISA, plate coated with BSA-conjugated antigen peptide, periplasmic extract
# T2 construct: The BSA carrier is not written as a chain; also called AIMP2-DX2 antigen peptide (the same peptide used in the rabbit immunization, conjugated to BSA)
# T2 peptide: GHVQDYGALKDC
# [2] = target: T3, AIMP2-DX2 antigen peptide (human, not fully specified); assay: antigen pre-adsorption, Western blot of HEK293T lysate, peptide at 100 ug/ml
# T3 construct: Used in solution for pre-adsorption in Western blots (100 ug/ml) and as analyte in SPR
# T3 peptide: GHVQDYGALKD
# [3] = target: T3, AIMP2-DX2 antigen peptide; assay: SPR, H5 IgG coated on CM5 chip, peptide flowed at various concentrations
Binder,binding result (wild-type AIMP2 protein),binding result [1],binding result [2],binding result [3]
B1,no binding,binds,binds,
B2,,,,binds
